Measured values: EP3350599B1

What was measured:
[1] = target: purified bone alkaline phosphatase from calf intestinal mucosa (AP; Santa Cruz sc-3716 - CAS9001-78-9) (calf) (UniProt P19111); experiment: capture ELISA, coated antibody, AP calibrator at 25 ng/ml, bound enzyme read with pNPP
[2] = target: purified bone alkaline phosphatase from calf intestinal mucosa (AP; Santa Cruz sc-3716 - CAS9001-78-9) (calf) (UniProt P19111); experiment: capture ELISA, coated antibody, AP calibrator at 50 ng/ml, bound enzyme read with pNPP
[3] = target: purified bone alkaline phosphatase from calf intestinal mucosa (AP; Santa Cruz sc-3716 - CAS9001-78-9) (calf) (UniProt P19111); experiment: capture ELISA, coated antibody, AP calibrator at 12.5 ng/ml, bound enzyme read with pNPP
[4] = target: purified bone alkaline phosphatase from calf intestinal mucosa (AP; Santa Cruz sc-3716 - CAS9001-78-9) (calf) (UniProt P19111); experiment: capture ELISA, coated antibody, AP calibrator at 3.125 ng/ml, bound enzyme read with pNPP
[5] = target: purified bone alkaline phosphatase from calf intestinal mucosa (AP; Santa Cruz sc-3716 - CAS9001-78-9) (calf) (UniProt P19111); experiment: capture ELISA, coated antibody, AP calibrator at 6.25 ng/ml, bound enzyme read with pNPP
[6] = target: purified bone alkaline phosphatase from calf intestinal mucosa (AP; Santa Cruz sc-3716 - CAS9001-78-9) (calf) (UniProt P19111); experiment: capture ELISA, coated antibody, AP calibrator at 100 ng/ml, bound enzyme read with pNPP

Sequence of UniProt P19111 (P19111 20-506): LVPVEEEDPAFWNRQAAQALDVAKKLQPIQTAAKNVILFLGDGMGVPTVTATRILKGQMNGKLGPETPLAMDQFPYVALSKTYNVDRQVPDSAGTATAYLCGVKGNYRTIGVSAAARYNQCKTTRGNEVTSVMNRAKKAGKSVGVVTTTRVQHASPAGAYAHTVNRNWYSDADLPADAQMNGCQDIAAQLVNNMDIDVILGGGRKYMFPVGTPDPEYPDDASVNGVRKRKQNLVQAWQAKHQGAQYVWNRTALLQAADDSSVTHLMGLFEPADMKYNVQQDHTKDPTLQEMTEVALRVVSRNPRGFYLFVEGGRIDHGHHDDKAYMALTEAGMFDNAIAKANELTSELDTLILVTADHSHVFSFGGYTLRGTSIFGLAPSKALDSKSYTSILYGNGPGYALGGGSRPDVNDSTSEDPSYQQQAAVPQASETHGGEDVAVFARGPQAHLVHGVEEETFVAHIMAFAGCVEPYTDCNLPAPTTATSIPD

Abs. 415 nm, Abs. (1) [1]: 0.345 Abs. 415 nm
Abs. 415 nm, Abs. (2) [1]: 0.272 Abs. 415 nm
Abs. 415 nm, Abs. (3) [1]: 0.294 Abs. 415 nm
Mean Abs. 415 nm [1]: 0.304 Abs. 415 nm
Abs. 415 nm, Abs. (1) [2]: 0.628 Abs. 415 nm
Abs. 415 nm, Abs. (2) [2]: 0.501 Abs. 415 nm
Abs. 415 nm, Abs. (3) [2]: 0.476 Abs. 415 nm
Mean Abs. 415 nm [2]: 0.535 Abs. 415 nm
Abs. 415 nm, Abs. (1) [3]: 0.186 Abs. 415 nm
Abs. 415 nm, Abs. (2) [3]: 0.156 Abs. 415 nm
Abs. 415 nm, Abs. (3) [3]: 0.161 Abs. 415 nm
Mean Abs. 415 nm [3]: 0.168 Abs. 415 nm
Abs. 415 nm, Abs. (1) [4]: 0.054 Abs. 415 nm
Abs. 415 nm, Abs. (2) [4]: 0.05 Abs. 415 nm
Abs. 415 nm, Abs. (3) [4]: 0.066 Abs. 415 nm
Mean Abs. 415 nm [4]: 0.057 Abs. 415 nm
Abs. 415 nm, Abs. (1) [5]: 0.11 Abs. 415 nm
Abs. 415 nm, Abs. (2) [5]: 0.098 Abs. 415 nm
Abs. 415 nm, Abs. (3) [5]: 0.089 Abs. 415 nm
Mean Abs. 415 nm [5]: 0.099 Abs. 415 nm
Abs. 415 nm, Abs. (1) [6]: 1.09 Abs. 415 nm
Abs. 415 nm, Abs. (2) [6]: 1.03 Abs. 415 nm
Abs. 415 nm, Abs. (3) [6]: 1.12 Abs. 415 nm
Mean Abs. 415 nm [6]: 1.08 Abs. 415 nm
Substance: anti-BAP polyclonal IgG antibody (produced in sheep) specific for bone alkaline phosphatase (Abcam Ab68716)
